The data set addresses factor X (FX) (UniProt P00742).

For 1 substance, aPTT in FIX-depleted plasma: pdFIXa equivalent activity given for 0.5 µg/mL of FIXa protein results are on record in patent US20080214462.

Sequence of UniProt P00742 (P00742 whole entry, looked up): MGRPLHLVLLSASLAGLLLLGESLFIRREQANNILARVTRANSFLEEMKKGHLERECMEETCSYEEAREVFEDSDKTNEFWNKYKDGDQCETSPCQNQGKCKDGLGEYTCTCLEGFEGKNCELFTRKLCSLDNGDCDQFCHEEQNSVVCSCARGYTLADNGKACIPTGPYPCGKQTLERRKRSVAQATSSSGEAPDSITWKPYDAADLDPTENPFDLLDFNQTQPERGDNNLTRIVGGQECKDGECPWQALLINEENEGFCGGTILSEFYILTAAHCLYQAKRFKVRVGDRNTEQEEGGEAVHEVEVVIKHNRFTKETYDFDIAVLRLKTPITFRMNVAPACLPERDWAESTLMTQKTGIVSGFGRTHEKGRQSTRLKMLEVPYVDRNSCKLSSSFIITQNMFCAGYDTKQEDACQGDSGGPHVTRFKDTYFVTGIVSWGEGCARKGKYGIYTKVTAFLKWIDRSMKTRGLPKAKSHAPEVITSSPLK

For the substance activated plasma derived FIX (pdFIXa), the aPTT in FIX-depleted plasma: pdFIXa equivalent activity given for 0.5 µg/mL of FIXa protein was 1.1 µg/mL.
